# Assay: soluble on expression in E. coli; label from the status in PepcDB or PDB records
row,Sequence,soluble on expression in E. coli
1,MTELKLIHIFTDGSCLGNPGPGGYGIVMKYKGHTKEMSGGFSLTTNNRMELLAPIVALEALKEPCKIILTSDSQYVRQGIMTWIHGWKKNGWMTSNGTPVKNVDLWKRLDKAAQLHQIDWRWVKGHAGHAENERCHQLARAAAEANPTQIDTGYQAES,soluble
2,GPSRVVYLGSIPYDQTEEQILDLCSNVGPVINLKMMFDPQTGRSKGYAFIEFRDLESSASAVRNLNGYQLGSRFLKCGYSSNSDISGVSQQQQQQYN,soluble
3,MGSDKIHHHHHHMFALAASNMILRGDGKANLHQSSCFMTDFQDLIKNPKPETGLKRPNVGFLNPPYAQSKSDAELHELYFVKEMLDMLAEGGTGIAIIPVSCVIAPSKAKSEIVKYHRLKAVMSMPSELFYPVGTVTCIVVFEAHKPHFQTVVIDPDTQEEISTKKACRKTWFGYWRDDGFEKTKHLGRIDLYDRWQGIKARWLEHYLNNEVHTGESVTAFVTDNDEWVAEAYLETDYSKITRADFEQVVREFALFQLLGAEVGPTENLDNESYEDDDNNDFGDDE,not soluble
4,MIKFYQYKNCTTCKKAAKFLDEYGVSYEPIDIVQHTPTINEFKTIIANTGVEINKLFNTHGAKYRELDLKNKLQTLSDDEKLELLSSDGMLVKRPLAVMGDKITLGFKEDQYKETW,soluble
5,MGSDKIHHHHHHTYDYFEDETNYQVFVPEVLNKTVSDCRVLVYNDAGTLVGARYATSPWDKDPRMEAGLFSFRLTPGEYKVYCYTNTDSLTFVDGQHLDASAFILKSSSTGPNRYVQPSDILFQKFVPAIVHPGILQTDTAALERYTGRITVRFKKFPGDVSHIKKVQLLAEGAPVMQYLKNDTLTGRLTPEDKMFHFGTLPVQEKADVLEVDHRFIPSVENEPMRLNYTFLDENGAVVNHLPVEVTERETGLPLRLLHGKRIIIEIESYTVIKISVVGWNEDIESGDTDME,not soluble
6,MSQGDSNPAAIPHAAEDIQGDDRWMSQHNRFVLDCKDKEPDVLFVGDSMVQLMQQYEIWRELFSPLHALNFGIGGDTTRHVLWRLKNGELENIKPKVIVVWVGTNNHENTAEEVAGGIEAIVQLINTRQPQAKIIVLGLLPRGEKPNPLRQKNAKVNQLLKVSLPKLANVQLLDTDGGFVHSDGAISCHDMFDFLHLTGGGYAKICKPLHELIMQLLEETPEEKQTTIA,soluble
7,MSTKSIATSSTASSSSSHHQEHTVTELIMFFTSEEPPEPEPFSRSTEKSGIRTSKVITRTITISAETKLKMDLLEEQRREKRVKLEIEKSRIRAENLQRMQEISSEPKTRGSKRSLMRRAAKRTKGRISSLLIRDSSVDSGSITDKALKDKKRGLSLEWEVKDQGRFAESFSDSRLMEMFQHPSGMPIEPDVMMEGYLYKRSSNAFKTWNRRWFQIKDKQLLYSHRSTDLEPATIMEENLRICLVRPAPSNIDRIGCFELVTPTRIHLLQADSESLCQDWMRALQRTILALHEGDSVDVASTSPRNKTTSMSSGVTLTSANAISPLSNAMDVTKGRSVSDPASTYTSANTSSISTAAGFSSSTTAFEQVRRVPGNEVCADCGSPAPKWVSINLGVVLCIECSGAHRSLGVQTSKVRSLCMDSIDNELRDVLLALGNRQVNEIFLAHLPPADSIVPPQINEKSARPAREAWIKAKYVERRFAVAEDTRARSSATNRQEHLKHKTSIGGNSSSNGVNRSSSYADVQDAESGGLLDADPWSADLSVPVPTASKRLSACGSDTNLDAIGSSSIDTKTVEWDSVKEACECGDLLALMTAYAQGFDLNALHNGTTALHIATRNGQTAAVEFLLLNGAKINMLDEKLNTPLHLAAKEGHTLPVCQLLKRGADSNLANVDSKTPLDIAMECTHADIVTLFRVTIMRNDFNADFNNPMDETVEAVISDIARRAATEKEQKKTESLKSTSDI,not soluble
8,MGSDKIHHHHHHMNIAFVINPVAGLGATLNLKGSDGLALEDVSKSISIVRSHRFLKKLDFNGLHFFVPSGCMGESEVSIYTKEYDVIYTPSSPTTRQDTINFVKSIESADLLVFVGGDGTARDILNSRNDLPVIGVPAGVKMYSSVFAISPERAADAVNQVAKGNYRIDKAEVVDIDEELYRKGILSVKRYGQLKVPEAQYIVENSKAEYDIAGAEDIAEYVIEHMADETYIIGPGNTCKTIEEEMGIKSNVLGFDILRNKKLIKEDASESEIYEACSDKCMLVISPVGGQNFLLGRGNKQISDRILERVGEENLIVVSSPSKAEHLKYVYIDTQIPLWSNGYVKVLVGYGRYKLVKVIR,not soluble
9,RTDTIMVLHMPRTGEPTLLSIPRDSYVNVPGWGMDKANAAFTVGGPELLTQTVEEATGLRIDHYAEIGMGGLANMVDAVGGVEMCPAEPMYDPLANLDIQAGCQEFDGAAALGYVRTRATALGDLDRVVRQREFFSALLSTATS,not soluble
10,MSPLWLVVFIVPLASGISLSDCSKKNSCYGSPVNCQPGIDCHVLLRFEDDGTLDVHLQNFTAPDGYVALAYNSNQNAPTEYLICIPHERKRLRGISSQGEIITITEQNMAQYVAQMDTNTFICSFVGKEIPSNFRMQSNFVVSEGLFANESNIPTTYKLEPISTDSVFFHPIAATIGRQDEALSEDEEKLATDLLGKVQRLSDHDSESTDMEAILNEKNRFTIEEFEEKLFSAMSNRRRPIKKFEREEEDQDDDEYSEVEEKESHPKKRREHKKGRHTRVLSDEQEEDYDQYEDDMPSKKRKRPFNSEELENGEDVDFGKKSNKNSQKGTFDGQRQR,not soluble
11,MGSDKIHHHHHHMEINTEIAIAWMSARQGKVSYSMDYRDGPNSYDCSSSVYYALRSAGASSAGWAVNTEYMHDWLIKNGYELIAENVDWNAVRGDIAIWGMRGHSSGAGGHVVMFIDPENIIHCNWANNGITVNNYNQTAAASGWMYCYVYRLKSGASTQGKSLDTLVKETLAGNYGNGEARKAVLGNQYEAVMSVINGKTTTNQKTVDQLVQEVIAGKHGNGEARKKSLGSQYDAVQKRVTELLKKQPSEPFKAQEVNKPTETKTSQTELTGQATATKEEGDLSFNGTILKKAVLDKILGNCKKHDILPSYALTILHYEGLWGTSAVGKADNNWGGMTWTGQGNRPSGVTVTQGSARPSNEGGHYMHYASVDDFLTDWFYLLRAGGSYKVSGAKTFSEAIKGMFKVGGAVYDYAASGFDSYIVGASSRLKAIEAENGSLDKFDKATDIGDGSKDKIDITIEGIEVTINGITYELTKKPV,not soluble
12,MARKTKPLTDTEIKAAKPKDADYQLYDGDGLTLLIKSSGSKLWQFRYYRPLTKQRTKQSFGAYPAVSLSDARKLRAESKVLLAKDIDPQEHQKEQVRNSQEAKTNTFLLVAERWWNVKKTSVTEDYADDIWRSLERDIFPAIGDISITEIKAHTLVKAVQPVQARGALETVRRLCQRINEVMIYAQNTGLIDAVPSVNIGKAFEKPQKKNMPSIRPDQLPQLMHTMRTASISMSTRCLFMWQLLTITRPAEAAEARWDEIDFNASEWKIPAARMKMNRDHTVPLSDGALAILEMMKPLSGGREFIFPSRIKPNQPMNSQTVNAALKRAGLGGVLVSHGLRSIASTALNEEGFPPDVIEAALAHVDKNEVRRAYNRSDYLEQRRPMMQWWADLVKAADSGSIVLTHLSKIRLVG,soluble
13,MSLKPKRILLVNEQRSFQVMMKAMLINIGISRITYANSAEEARRRCQKETFDIYLLDYELGVGENGRQLLESLRDQKLIPPQSVVIMVSGDSSRAMVLSALEAEPDEYLMKPFSQEQFSFRLKRALARRQALESVFSALAKEDLPTLLAACAERADAVPRFANFCRCLQADTQLKLGQAKEARSLMRQLLAGQENSWARLTLGKACHTLGLNEEAVSHLQATLKNTPLMVEAHLWLAESQLALGNDEQAQQELKRAVDISPQSVQLSRRLAEVCLLRHDYAQAKDVLLSLIDLSRNSIHRTPHYLGAYIQSLTLYALNSNDIYHIANLQKQVNSALSRIRDSLMMSEFNYPVFEQICQARVQIALGELLKGKKMLYRANQNWLDQPATMPPSLLGETILALYQLGEFEYAESLQALLAEDEDRLLTTCIQATRDDKTVLERRQRYQQLNELGIKAYQSGELEQALGHFREALRRAPANTGAALNKIQVLLQLMQKNRKSPEFGAECKETLEVLDGIPLNPAQQDRFRKLRQEFTQLSEGHHHHHH,soluble
